# Source: EP1230350B1, “SITE-DIRECTED MUTAGENESIS OF ESCHERICHIA COLI PHYTASE” (CORNELL RESEARCH FOUNDATION, INC., priority 1999, dated 2001)
# Positions count from the first letter of the chain named. In names and notes the source's numbering stands. Marks after values point to notes of the source that are not given here.
# B1: Escherichia coli acid phosphatase/phytase (appA) Mutant Y (construct E2A1P2P3K2: A131N, V134N, C200N, D207N, S211N), expressed in Pichia pastoris (Escherichia … (protein)
# chain: AFAQSEPELKLESVVIVSRHGVRAPTKATQLMQDVTPDAWPTWPVKLGWLTPRGGELIAYLGHYQRQRLVADGLLAKKGCPQSGQVAIIADVDERTRKTGEAFAAGLAPDCNITNHTQADTSSPDPLFNPLKTGVCQLDNANVTDAILSRAGGSIADFTGHRQTAFRELERVLNFPQSNLNLKREKQNESCNLTQALPSELKVSADNVSLTGAVSLASMLTEIFLLQQAQGMPEPGWGRITDSHQWNTLLSLHNAQFYLLQRTPEVARSRATPLLDLIKTALTPHPPQKQAYGVTLPTSVLFIAGHDTNLANLGGALELNWTLPGQPDNTPPGGELVFERWRRLSDNSQWIQVSLVFQTLQQMRDKTPLSLNTPPGEVKLTLAGCEERNAQGMCSLAGFTQIVNEARIPACSL
# notes: The coding region starts at the codon 20 and ends at the codon 432; alpha-factor secretion leader of vector pPICZαA (own knowledge of the vector); made in house; host or cells: Pichia pastoris X33
# B2: Escherichia coli acid phosphatase/phytase (appA) Mutant R (construct E2A1P3K2: A131N, V134N, D207N, S211N), expressed in Pichia pastoris (Escherichia coli … (protein)
# chain: B1 chain with N181C
# notes: as for B1
# B3: Escherichia coli acid phosphatase/phytase (appA) Mutant U (construct E2P2P3K2: C200N, D207N, S211N), SEQ. ID. No. 3, expressed in Pichia pastoris (Escherichia … (protein)
# chain: B1 chain with N112A, N115V
# notes: as for B1
# B4: Escherichia coli acid phosphatase/phytase (appA), wild type r-AppA, SEQ. ID. No. 1, expressed in Pichia pastoris (Escherichia coli K-12) (protein)
# chain: B1 chain with N112A, N115V, N181C, N188D, N192S
# notes: as for B1
# Key:
# Test in all cases: Enzyme kinetics of acid phosphatase/phytase (pNPP and sodium phytate as substrates)
# [1] = molecular target: T1, Escherichia coli acid phosphatase/phytase (appA) Mutant U (construct E2P2P3K2: C200N, D207N, S211N), SEQ. ID. No. 3, expressed in Pichia pastoris (Escherichia coli, UniProt P07102, C200N/D207N/S211N); type: biochemical
# T1 construct: The coding region starts at the codon 20 and ends at the codon 432; alpha-factor secretion leader of vector pPICZαA (own knowledge of the vector); made in house; host or cells: Pichia pastoris X33
# T1 sequence (P07102 20-432 C200N/D207N/S211N): B1 chain with N112A, N115V
# Procedure: The expressed r-AppA and mutant enzymes in the medium supernatant were subjected to a two-step ammonium sulfate precipitation (25% and 75%) as previously described (Rodriguez, E. et al., Biochem. Biophys. Res. Commun. 257:117-23 (1999)). The suspension of the first round was centrifuged at 4°C, 25,000 x g for 20 min. The pellet of the second round was suspended in 10 ml and dialyzed overnight against 25 mM Tris-HCl, pH 7. After dialysis, the protein extract was loaded onto a DEAE (diethylaminoethyl)-Sepharose column (Sigma, St. Louis, MO) equilibrated with 25 mM Tris-HCl, pH 7. The bound protein was eluted with 1 M NaCl in 25 mM Tris-CH1, pH 7. […] Phytase activity was measured using sodium phytate as the substrate (Rodriguez, E. et al., Biochem. Biophys. Res. Commun. 257:117-23 (1999); Piddington, C.S. et al., Gene 133:55-62 (1993)). […] Free inorganic phosphorus was measured at 820 nm after 0.2 ml of the sample was mixed with 1.8 ml of H2O and 2 ml of a solution containing 0.6 M H2SO4, 2% ascorbic acid, and 0.5% ammonium molybdate, followed by incubation for 20 min at 50°C. […] The released p-nitrophenol was measured at 405 nm after 0.1 ml of the sample was mixed with 0.9 ml of 1 M NaOH and incubated for 10 min. […] After the samples were cooled on ice for 30 min, their remaining phytase activies were measured as described above. […]
# [2] = substrate: O=[N+]([O-])c1ccc(OP(=O)(O)O)cc1; type: biochemical, Escherichia coli; conditions: 0.25 M glycine-HCl, pH 2.5, 37°C, Lineweaver-Burk plot
# Procedure: (§1) The expressed r-AppA and mutant enzymes in the medium supernatant were subjected to a two-step ammonium sulfate precipitation (25% and 75%) as previously described (Rodriguez, E. et al., Biochem. Biophys. Res. Commun. 257:117-23 (1999)). The suspension of the first round was centrifuged at 4°C, 25,000 x g for 20 min. The pellet of the second round was suspended in 10 ml and dialyzed overnight against 25 mM Tris-HCl, pH 7. After dialysis, the protein extract was loaded onto a DEAE (diethylaminoethyl)-Sepharose column (Sigma, St. Louis, MO) equilibrated with 25 mM Tris-HCl, pH 7. The bound protein was eluted with 1 M NaCl in 25 mM Tris-CH1, pH 7. […] Phytase activity was measured using sodium phytate as the substrate (Rodriguez, E. et al., Biochem. Biophys. Res. Commun. 257:117-23 (1999); Piddington, C.S. et al., Gene 133:55-62 (1993)). The enzyme was diluted in 0.25 M glycine-HCl, pH 2.5, and an equal volume of substrate solution containing 11 mM sodium phytate (Sigma) was added. After incubation of the sample for 15 min at 37°C, the reaction was stopped by addition of an equal volume of 15% trichloroacetic acid. Free inorganic phosphorus was measured at 820 nm after 0.2 ml of the sample was mixed with 1.8 ml of H2O and 2 ml of a solution containing 0.6 M H2SO4, 2% ascorbic acid, and 0.5% ammonium molybdate, followed by incubation for 20 min at 50°C. One phytase unit was defined as the amount of activity that releases 1 µmol of inorganic phosphorus from sodium phytate per minute at 37°C. The final concentrations of sodium phytate used for the enzyme kinetics were: 0.1, 0.25, 0.5, 0.75, 1, 2.5, 10, and 25 mM. Acid phosphatase activity was assayed using pNPP (Sigma) at a final concentration of 25 mM (Smith, R. et al., Protein Engineerine 5:35-41 (1992)). To 50 µl of enzyme (40 nmol), 850 µl of 250 mM glycine-HCl, pH 2.5, were added. After 5 min of incubation at 37°C, 100 µl of pNPP was added. The released p-nitrophenol was measured at 405 nm after 0.1 ml of the sample was mixed with 0.9 ml of 1 M NaOH and incubated for 10 min. The final concentrations ofpNPP used for the enzyme kinetics were: 0.1, 0.2, 0.75, 1, 2.5, 10, and 25 mM. One unit of acid phosphatase/phytase activity was defined as the amount of enzyme catalyzing the formation of 1 µmol of p-nitrophenol per minute. Before the thermostability assay, the enzyme (2 mg/ml) was diluted 1:400 in 0.2 M glycine-HCl, pH 2.5. The diluted samples were incubated for 15 min at 25, 55, 80, and 90°C. After the samples were cooled on ice for 30 min, their remaining phytase activies were measured as described above. Deglycosylation of purified enzymes was done by incubating 100 µg of total protein with 0.5 IU endoglycosidase Hf (Endo Hf) for 4 h at 37°C according to the manufacturer's instructions (New England Biolabs, Beverly, MA). Sodium dodecyl sulfate-polyacrylamide gel electrophoresis (SDS-PAGE), 15% (w/v) gel was performed as previously described (Laenunli, U.K., Nature 227:680-85 (1970)). Protein concentrations were determined using the Lowry method (Lowry, O.H. et al., J. Biol. Chem. 193:265-75 (1951)).
# (§2) The Km value for pNPP (p-nitrophenyl phosphate) was reduced by one-half and the one for sodium phytate by 70% with Mutant U, versus r-AppA (P < 0.05) (Table 4).
# [3] = substrate: O=P(O)(O)OC1C(OP(=O)(O)O)C(OP(=O)(O)O)C(OP(=O)(O)O)C(OP(=O)(O)O)C1OP(=O)(O)O; type: biochemical, Escherichia coli; conditions: 0.25 M glycine-HCl, pH 2.5, 37°C, Lineweaver-Burk plot
# Procedure: as §1, §2
molecule,measurement,setting,value
"O=P(O)(O)O[C@H]1[C@H](OP(=O)(O)O)[C@@H](OP(=O)(O)O)[C@H](OP(=O)(O)O)[C@@H](OP(=O)(O)O)[C@H]1OP(=O)(O)O [Na-Phytate, sodium phytate]",increase in apparent catalytic efficiency kcat/Km for sodium phytate than that of r-AppA,[1]; Mutant U versus r-AppA,5.2 fold
same,"Km value for sodium phytate reduced, versus r-AppA",[1]; Mutant U versus r-AppA (P < 0.05),70%
B1,Km,[2]; other: Mutant Y,3180 ± 390 µM
same,kcat,[2]; other: Mutant Y,787 ± 6.7 min⁻¹
same,kcat/Km,[2]; other: Mutant Y,(2.5 ± 0.17) x 10^5 min^-1 M^-1
same,Km,[3]; other: Mutant Y,2030 ± 190 µM
same,kcat,[3]; other: Mutant Y,3431 ± 41^* min^-1
same,kcat/Km,[3]; other: Mutant Y,(1.69 ± 0.21) x 10^6* min^-1 M^-1
B2,Km,[2]; other: Mutant R,7870 ± 840 µM
same,kcat,[2]; other: Mutant R,390 ± 5.9^* min^-1
same,kcat/Km,[2]; other: Mutant R,(0.5 ± 0.07) x 10^5* min^-1 M^-1
same,Km,[3]; other: Mutant R,3070 ± 260 µM
same,kcat,[3]; other: Mutant R,1657 ± 23^* min^-1
same,kcat/Km,[3]; other: Mutant R,(0.54 ± 0.09) x 10^6* min^-1 M^-1
B3,Km,[2]; other: Mutant U,1860 ± 35000 µM
same,kcat,[2]; other: Mutant U,1073 ± 13^* min^-1
same,kcat/Km,[2]; other: Mutant U,(5.8 ± 0.37) x 10^5* min^-1 M^-1
same,Km,[3]; other: Mutant U,580 ± 80 µM
same,kcat,[3]; other: Mutant U,4003 ± 56^* min^-1
same,kcat/Km,[3]; other: Mutant U,(6.90 ± 0.70) x 10^6* min^-1 M^-1
B4,Km,[2]; other: r-AppA,3660 ± 440 µM
same,kcat,[2]; other: r-AppA,752 ± 7.9 min⁻¹
same,kcat/Km,[2]; other: r-AppA,(2.0 ± 0.18) x 10^5 min^-1 M^-1
same,Km,[3]; other: r-AppA,1950 ± 250 µM
same,kcat,[3]; other: r-AppA,2148 ± 33 min⁻¹
same,kcat/Km,[3]; other: r-AppA,(1.11 ± 0.13) x 10^6 min^-1 M^-1
